In series [1] the target is CCHFV nucleocapsid protein (N) (Crimean-Congo hemorrhagic fever virus strain 10200) (UniProt P89522). Nature of the series: filter binding. Particulars: 40 mM Tris-HCl pH 7.4, 80 mM NaCl (or 250 mM), 20 mM KCl, 1 mM DTT, room temperature, 30-45 min.
Series [2] has the same target. As to the kind of experiment: BLI. The following applies: 40 mM Tris-HCl pH 7.4, 80 mM NaCl (or 250 mM), 20 mM KCl, 1 mM DTT, room temperature, 30-45 min.
Series [3] shares this target. Nature of the series: tryptophan fluorescence. The following applies: 40 mM Tris-HCl pH 7.4, 80 mM NaCl (or 250 mM), 20 mM KCl, 1 mM DTT, room temperature, 30-45 min.
Series [4] deals with CCHFV nucleocapsid protein (N) (Crimean-Congo hemorrhagic fever virus …, UniProt P89522 1-482). Nature of the series: competition; vs labeled 5' NCR; 40 mM Tris-HCl pH 7.4, 80 mM NaCl (or 250 mM), 20 mM KCl, 1 mM DTT, room temperature, 30-45 min. The following applies: protein: recombinant; tags: His (C-terminal per Methods; Results says N-terminal); biotin (BLI); none (fluorescence); single strand.

Values joined by “and” are separate entries in the source; they are usually repeats but may differ in a detail not shown here. Equal values may be shown once.

Sequence of CCHFV nucleocapsid protein (N) (Crimean-Congo hemorrhagic fever virus strain 10200) (P89522 whole entry): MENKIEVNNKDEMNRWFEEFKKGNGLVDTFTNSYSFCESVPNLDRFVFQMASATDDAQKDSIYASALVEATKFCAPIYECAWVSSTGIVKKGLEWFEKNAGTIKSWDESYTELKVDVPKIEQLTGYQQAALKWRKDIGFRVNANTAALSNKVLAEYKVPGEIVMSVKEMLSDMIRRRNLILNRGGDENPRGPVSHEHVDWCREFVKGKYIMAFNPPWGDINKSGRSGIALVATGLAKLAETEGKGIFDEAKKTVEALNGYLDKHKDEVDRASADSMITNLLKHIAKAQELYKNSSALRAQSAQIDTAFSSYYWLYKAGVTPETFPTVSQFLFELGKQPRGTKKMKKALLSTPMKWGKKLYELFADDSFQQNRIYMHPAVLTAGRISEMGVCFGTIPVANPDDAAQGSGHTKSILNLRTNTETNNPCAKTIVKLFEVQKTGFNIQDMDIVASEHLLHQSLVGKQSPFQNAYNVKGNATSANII
Sequence of CCHFV nucleocapsid protein (N) (P89522 whole entry): as above

Regarding 5' NCR 100 nt, in series [1], the Kd worked out at 131 nM. This counts as sub-micromolar.

Take Gluc RNA: the Kd in series [1] is 55 nM and 43 nM.

On to 5' NCR (30 nt), for which the Kd in series [2] was 131 nM; in series [1], 121 nM and 147 nM; in series [3], 167 nM.

As to 5' NCR 60 nt, in series [1], the equilibrium dissociation constant (Kd) was 131 nM. That is a sub-micromolar value.

Take CCHF S-segment vRNA: the Kd in series [1] was 55 nM.

Turning to Nonviral ssRNA (30 nt), the Kd in series [1] worked out at 121 nM. Against the preceding molecule, the Kd is about 2.2-fold higher.

With Wild type panhandle, the Kd in series [2] was 41 nM; in series [1] it was 42 nM and 47 nM; in series [3] it was 48 nM.

B1: 3' NCR (30 nt) (ssRNA)
RNA: UGGGCGUAAGCGGCACGUGUUUCUUUGAGA
For B1, the binding result in series [4] is given as “binds”.

Source of the values: publication PMC5602631, “Crimean-Congo hemorrhagic fever virus nucleocapsid protein has dual RNA binding modes”.
